Measurements from patent publication US20100158922A1 (published 2010).

Target: T1, recombinant human IFNγ (human, UniProt P01579 24-166)
T1 chain: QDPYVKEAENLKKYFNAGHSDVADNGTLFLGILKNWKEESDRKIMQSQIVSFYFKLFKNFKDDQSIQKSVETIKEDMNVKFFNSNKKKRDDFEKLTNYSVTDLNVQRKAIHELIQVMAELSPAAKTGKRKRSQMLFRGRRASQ
Assay: SPR (Biacore)

- Kd: 0.732 nM
B1: NI-0501 (antibody, V domains shown)
VH: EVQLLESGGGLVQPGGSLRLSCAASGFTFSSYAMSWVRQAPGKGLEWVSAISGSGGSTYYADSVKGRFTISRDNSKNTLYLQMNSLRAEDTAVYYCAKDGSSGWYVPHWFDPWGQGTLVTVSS
VL: NFMLTQPHSVSESPGKTVTISCTRSSGSIASNYVQWYQQRPGSSPTTVIYEDNQRPSGVPDRFSGSIDSSSNSASLTISGLKTEDEADYYCQSYDGSNRWMFGGGTKLTVL
